Drawing on the Immune Epitope Database (IEDB), this text covers Kd and IC50 for eleven sequences.

The target in one test is HLA-B*58:01. Briefly: IEDB peptide-MHC binding, purified MHC/direct/fluorescence; filed as Kd, often an IC50 or EC50 that approximates it; ≥ and ≤ were set here for values at or beyond the usual limits of such assays.
The target of a further test is HLA-A*03:01. The description is as above.
Another test concerns the target HLA-B*15:01. The description is as above.
The next test has as its target HLA-B*08:01. The description is as above. Conditions: source organism: Cryptosporidium parvum.
For a further test, the target named is HLA-A*31:01. The description is as above. Conditions: source organism: Cryptosporidium parvum.
Test [1] addresses HLA-B*44:02. Described as above. Conditions: source organism: Cryptosporidium parvum.
In test [2] the target is HLA-A*11:01. The description is as above.
The target in the next test is HLA-A*26:01. Described as above. Conditions: source organism: Cryptosporidium parvum.
The next test has as its target HLA-B*40:01. The test is described as above. Conditions: source organism: Cryptosporidium parvum.
The next test deals with HLA-A*02:01. The test is described as above.
Test [3] concerns the target HLA-B*07:02. The description is as above. Conditions: source organism: Cryptosporidium parvum.
Test [4] deals with HLA-A*01:01. The description is as above.
The target of a further test is HLA-A*30:01. The test is described as above. Conditions: source organism: Cryptosporidium parvum.
The next test deals with HLA-B*27:05. The test is described as above. Conditions: source organism: Cryptosporidium parvum.
Another test addresses HLA-B*73:01. The description is as above.
The next test addresses HLA-A*69:01. Described as above.
In a further test the target is HLA-B*51:01. In words: IEDB peptide-MHC binding, purified MHC/competitive/fluorescence; filed as Kd, often an IC50 or EC50 that approximates it; ≥ and ≤ were set here for values at or beyond the usual limits of such assays. Conditions: source organism: Bacillus anthracis str. A2012.
Test [5] concerns the target HLA-B*35:01. Described as above. Conditions: source organism: Bacillus anthracis str. A2012.
For test [6], the target named is HLA-B*07:02. The description is as above. Conditions: source organism: Bacillus anthracis str. A2012.
The target in test [7] is HLA-A*01:01. Briefly: IEDB peptide-MHC binding, purified MHC/competitive/fluorescence; ≥ and ≤ were set here for values at or beyond the usual limits of such assays. Conditions: source organism: Zaire ebolavirus.
The next test concerns the target HLA-C*08:02. Briefly: IEDB peptide-MHC binding, purified MHC/direct/fluorescence; filed as Kd, often an IC50 or EC50 that approximates it; ≥ and ≤ were set here for values at or beyond the usual limits of such assays.
In another test the target is HLA-C*12:03. The test is described as above.
The target of test [8] is HLA-B*44:02. Briefly: IEDB peptide-MHC binding, purified MHC/competitive/radioactivity; filed as Kd, often an IC50 or EC50 that approximates it; ≥ and ≤ were set here for values at or beyond the usual limits of such assays. Conditions: source organism: Homo sapiens.
The target in the next test is HLA-B*57:01. Described as above. Conditions: source organism: Homo sapiens.
Another test deals with HLA-B*44:03. Described as above. Conditions: source organism: Homo sapiens.
The target of test [9] is HLA-C*14:02. Briefly: IEDB peptide-MHC binding, purified MHC/direct/fluorescence; filed as Kd, often an IC50 or EC50 that approximates it; ≥ and ≤ were set here for values at or beyond the usual limits of such assays. Conditions: source organism: human gammaherpesvirus 4.
For the next test, the target named is HLA-C*15:02. The test is described as above. Conditions: source organism: human gammaherpesvirus 4.
The next test addresses HLA-C*07:02. The description is as above. Conditions: source organism: human gammaherpesvirus 4.
For the next test, the target named is HLA-B*15:42. Briefly: IEDB peptide-MHC binding, purified MHC/competitive/fluorescence; filed as Kd, often an IC50 or EC50 that approximates it; ≥ and ≤ were set here for values at or beyond the usual limits of such assays.
In the next test the target is HLA-A*32:15. Described as above. Conditions: source organism: human gammaherpesvirus 4.
The next test concerns the target HLA-B*83:01. The test is described as above.
A further test addresses HLA-A*32:07. The description is as above. Conditions: source organism: human gammaherpesvirus 4.
For another test, the target named is HLA-B*45:06. The test is described as above.
The next test addresses HLA-B*27:20. The test is described as above. Conditions: source organism: human gammaherpesvirus 4.
For another test, the target named is HLA-A*68:23. Described as above. Conditions: source organism: human gammaherpesvirus 4.
A further test has as its target HLA-C*04:01. Described as above.
For test [10], the target named is HLA-A*11:01. The test is described as above. Conditions: source organism: Influenza A virus H3N2.
Test [11] addresses HLA-B*35:01. In words: IEDB peptide-MHC binding, purified MHC/direct/fluorescence; filed as Kd, often an IC50 or EC50 that approximates it; ≥ and ≤ were set here for values at or beyond the usual limits of such assays. Conditions: source organism: Vibrio vulnificus YJ016.
For the next test, the target named is HLA-C*06:02. The test is described as above. Conditions: source organism: Vibrio vulnificus YJ016.
For test [12], the target named is HLA-C*14:02. Briefly: IEDB peptide-MHC binding, purified MHC/competitive/fluorescence; filed as Kd, often an IC50 or EC50 that approximates it; ≥ and ≤ were set here for values at or beyond the usual limits of such assays. Conditions: source organism: Vibrio vulnificus YJ016.
A further test concerns the target HLA-B*46:01. The description is as above. Conditions: source organism: Vibrio vulnificus YJ016.
The mark [13] stands for this setting: source organism: Cryptosporidium parvum.
Where [14] appears, read: source organism: Camelpox virus M-96.
[15] abbreviates: source organism: human gammaherpesvirus 4.
Setting [16] is: source organism: Mycobacterium tuberculosis CDC1551.
Where [17] appears, read: source organism: Vibrio vulnificus YJ016.

For the sequence KHNSAESAK, the Kd with HLA-B*58:01 (setting [13]) was no less than 20 µM; with HLA-A*03:01 (setting [13]), 12.3 µM; with HLA-B*15:01 (setting [13]) it was no less than 20 µM; with HLA-B*08:01 it was no less than 20 µM; in the test with HLA-A*31:01, no less than 20 µM; with HLA-B*44:02 [1] it was no less than 20 µM. The Kd with HLA-A*11:01 [2] (setting [13]), with HLA-A*26:01, in the test with HLA-B*40:01, with HLA-A*02:01 (setting [13]), with HLA-B*07:02 [3] and with HLA-A*01:01 [4] (setting [13]) was no less than 20 µM throughout. Further, the Kd with HLA-A*30:01 is 11.9 µM; with HLA-B*27:05, no less than 20 µM; with HLA-B*73:01 (source organism: Cryptosporidium parvum Iowa II), no less than 20 µM; in the test with HLA-A*69:01 (setting [13]) it was no less than 20 µM.

With YPIVIAPAM, the Kd is 1.01 µM in the test with HLA-B*51:01, no more than 0.0001 µM with HLA-B*35:01 [5] and 0.0138 µM with HLA-B*07:02 [6].

In the case of LTESDMDYH, the 50% inhibitory concentration (IC50) with HLA-A*01:01 [7] came out at 41.6 µM.

For YTAVVPLVY, the Kd was 0.0631 µM with HLA-B*58:01 (source organism: Homo sapiens); 4.54 µM with HLA-A*03:01 (source organism: Homo sapiens); 0.41 µM with HLA-B*15:01 (source organism: Homo sapiens); 2.5 µM with HLA-A*11:01 [2] (source organism: Homo sapiens); no less than 20 µM in the test with HLA-C*08:02 (source organism: Homo sapiens); 0.171 µM in the test with HLA-C*12:03 (source organism: Homo sapiens). Also, the Kd with HLA-A*01:01 [4] (source organism: Homo sapiens) worked out at 0.143 µM; with HLA-A*69:01 (source organism: Homo sapiens), 1.31 µM; with HLA-B*44:02 [8], 7.78 µM; with HLA-B*57:01, 0.208 µM; in the test with HLA-B*44:03, 5.54 µM.

As for YLSSWTPVV, the Kd in the test with HLA-C*08:02 (source organism: Variola virus) is 0.074 µM; in the test with HLA-A*02:01 (setting [14]), no more than 0.001 µM; with HLA-A*69:01 (setting [14]) it was 0.154 µM.

In the case of MMAKSNSPF, the Kd with HLA-C*14:02 [9] is 0.008 µM; with HLA-C*15:02, no less than 20 µM; in the test with HLA-C*07:02 it was 3.16 µM; in the test with HLA-B*15:42 (setting [15]), no less than 5 µM; with HLA-A*32:15, 0.0428 µM; with HLA-B*83:01 (setting [15]), no less than 5 µM. For the same sequence, the Kd was 0.1 µM in the test with HLA-A*32:07, no less than 5 µM with HLA-B*45:06 (setting [15]), 0.0487 µM with HLA-B*27:20 and 0.0431 µM in the test with HLA-A*68:23.

For the sequence RPREATIIY, the Kd with HLA-B*15:42 (setting [16]), in the test with HLA-B*83:01 (setting [16]), with HLA-C*04:01 (setting [16]) and with HLA-B*45:06 (setting [16]) was no less than 5 µM throughout.

Sequence SFGGFTFK yielded a Kd in the test with HLA-A*11:01 [10] of 0.0448 µM.

GPFDAVLYY: the IC50 with HLA-A*01:01 [7] was no less than 172 µM.

Consider YTMELCGAM, for which the Kd with HLA-B*35:01 [11] is 0.028 µM; with HLA-C*06:02 it was no less than 20 µM; with HLA-C*12:03 (setting [17]), 0.088 µM; with HLA-B*15:42 (setting [17]), no less than 5 µM; with HLA-C*14:02 [12], no more than 0.0001 µM; with HLA-B*46:01 it was 0.018 µM. Further, the Kd in the test with HLA-B*83:01 (setting [17]), with HLA-C*04:01 (setting [17]) and with HLA-B*45:06 (setting [17]) was no less than 5 µM each time.

Consider FQANMFLTL, for which the Kd with HLA-B*73:01 (source organism: Bacillus anthracis) was no less than 20 µM.
